Data on 1 molecule can be found in article doi:10.1101/2021.01.07.425795 (bioRxiv, 2021).

Test in all cases: SEC
In general terms: SEC sorts molecules by how far they enter the pores of the column.

Data set [1] concerns the target T1, ACAD9 (wild type, without a tag) (human, UniProt Q9H845 38-621).
T1 sequence (looked up): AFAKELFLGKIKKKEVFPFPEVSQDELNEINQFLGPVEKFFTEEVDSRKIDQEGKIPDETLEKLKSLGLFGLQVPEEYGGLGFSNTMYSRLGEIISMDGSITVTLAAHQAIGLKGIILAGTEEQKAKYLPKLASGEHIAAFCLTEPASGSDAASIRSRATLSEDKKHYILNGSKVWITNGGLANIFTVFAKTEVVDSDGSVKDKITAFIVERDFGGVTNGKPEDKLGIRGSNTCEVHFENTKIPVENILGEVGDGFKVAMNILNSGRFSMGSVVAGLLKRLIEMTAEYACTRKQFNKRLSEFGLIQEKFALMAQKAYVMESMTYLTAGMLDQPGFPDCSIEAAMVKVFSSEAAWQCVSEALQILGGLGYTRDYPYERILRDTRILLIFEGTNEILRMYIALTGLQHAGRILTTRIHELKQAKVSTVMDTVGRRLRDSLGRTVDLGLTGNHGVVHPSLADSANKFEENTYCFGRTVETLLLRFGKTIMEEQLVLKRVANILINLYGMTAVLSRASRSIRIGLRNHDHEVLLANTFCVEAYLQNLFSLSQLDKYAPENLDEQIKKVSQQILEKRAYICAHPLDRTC

Data set [2] deals with the molecule itself.
Data set [3] concerns the target T1, ACAD9 (wild type, without a tag). The source holds these as a separate data set.
In data set [4] the target is T2, ACAD9 Glu426Gln (human, UniProt Q9H845 38-621, Glu426Gln).
T2 sequence (looked up): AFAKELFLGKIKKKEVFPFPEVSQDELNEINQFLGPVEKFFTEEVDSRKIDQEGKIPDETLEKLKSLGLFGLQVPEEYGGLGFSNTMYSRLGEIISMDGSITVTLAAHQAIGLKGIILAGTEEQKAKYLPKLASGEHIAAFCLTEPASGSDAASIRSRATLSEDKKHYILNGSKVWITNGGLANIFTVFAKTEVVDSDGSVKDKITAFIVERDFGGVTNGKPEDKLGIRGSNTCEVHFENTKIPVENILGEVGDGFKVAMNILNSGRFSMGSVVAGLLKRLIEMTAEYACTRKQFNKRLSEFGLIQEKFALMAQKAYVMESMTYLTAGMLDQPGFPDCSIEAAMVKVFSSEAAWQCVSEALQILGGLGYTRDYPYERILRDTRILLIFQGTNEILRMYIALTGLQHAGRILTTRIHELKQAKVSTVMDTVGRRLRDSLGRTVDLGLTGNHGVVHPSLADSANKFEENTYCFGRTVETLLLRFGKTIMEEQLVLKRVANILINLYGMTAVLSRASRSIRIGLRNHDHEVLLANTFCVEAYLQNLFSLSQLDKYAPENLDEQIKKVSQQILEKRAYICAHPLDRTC

For data set [5], the target named is T3, ACAD9 Arg518His (human, UniProt Q9H845 38-621, Arg518His).
T3 sequence (looked up): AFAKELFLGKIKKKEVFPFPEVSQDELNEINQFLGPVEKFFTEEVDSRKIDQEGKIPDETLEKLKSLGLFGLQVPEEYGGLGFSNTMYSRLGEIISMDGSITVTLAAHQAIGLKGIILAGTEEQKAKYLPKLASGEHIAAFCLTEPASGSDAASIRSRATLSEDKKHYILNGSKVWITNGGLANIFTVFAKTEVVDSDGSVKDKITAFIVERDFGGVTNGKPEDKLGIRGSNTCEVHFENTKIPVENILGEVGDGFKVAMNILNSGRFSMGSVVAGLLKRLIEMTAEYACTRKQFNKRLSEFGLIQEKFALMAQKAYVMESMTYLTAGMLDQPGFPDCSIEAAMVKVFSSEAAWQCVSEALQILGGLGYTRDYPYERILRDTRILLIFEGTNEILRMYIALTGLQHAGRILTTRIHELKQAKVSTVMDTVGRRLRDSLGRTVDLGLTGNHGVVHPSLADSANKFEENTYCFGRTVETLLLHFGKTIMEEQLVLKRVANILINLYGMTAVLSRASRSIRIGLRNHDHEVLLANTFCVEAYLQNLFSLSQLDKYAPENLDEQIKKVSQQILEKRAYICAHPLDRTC

The target in data set [6] is T4, ACAD9 Arg469Trp (human, UniProt Q9H845 38-621, Arg469Trp).
T4 sequence (looked up): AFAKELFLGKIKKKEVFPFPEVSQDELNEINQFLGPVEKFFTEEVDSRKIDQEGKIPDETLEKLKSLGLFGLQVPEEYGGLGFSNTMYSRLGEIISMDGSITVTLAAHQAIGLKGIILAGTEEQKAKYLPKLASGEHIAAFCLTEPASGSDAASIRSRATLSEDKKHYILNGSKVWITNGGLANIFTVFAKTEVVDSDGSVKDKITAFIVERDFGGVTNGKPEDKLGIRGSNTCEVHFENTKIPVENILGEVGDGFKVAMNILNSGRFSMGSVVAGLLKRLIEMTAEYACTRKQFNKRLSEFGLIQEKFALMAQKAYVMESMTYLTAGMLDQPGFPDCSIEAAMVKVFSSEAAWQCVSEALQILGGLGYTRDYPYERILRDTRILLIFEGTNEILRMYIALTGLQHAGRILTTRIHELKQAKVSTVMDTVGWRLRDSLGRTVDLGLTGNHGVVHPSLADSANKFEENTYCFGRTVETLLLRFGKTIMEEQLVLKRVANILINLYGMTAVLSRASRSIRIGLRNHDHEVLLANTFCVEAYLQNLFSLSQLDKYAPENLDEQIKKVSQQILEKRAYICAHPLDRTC

Like-named read-outs stand apart in the source and are kept apart here.

B1: His6-ECSIT (natural protein, human, UniProt Q9BQ95 49-431, looked up)
chain: SSEQSLVPSPPEPRQRPTKALVPFEDLFGQAPGGERDKASFLQTVQKFAEHSVRKRGHIDFIYLALRKMREYGVERDLAVYNQLLNIFPKEVFRPRNIIQRIFVHYPRQQECGIAVLEQMENHGVMPNKETEFLLIQIFGRKSYPMLKLVRLKLWFPRFMNVNPFPVPRDLPQDPVELAMFGLRHMEPDLSARVTIYQVPLPKDSTGAADPPQPHIVGIQSPDQQAALARHNPARPVFVEGPFSLWLRNKCVYYHILRADLLPPEEREVEETPEEWNLYYPMQLDLEYVRSGWDNYEFDINEVEEGPVFAMCMAGAHDQATMAKWIQGLQETNPTLAQIPVVFRLAGSTRELQTSSAGLEEPPLPEDHQEEDDNLQRQQQGQS
With B1, the “stoichiometry N” value in data set [1] was 1 ECSIT chains per ACAD9 chain (one dimer with one dimer); in data set [2] it was 2; in data set [3], 1 mol/mol. The binding result in data set [4], in data set [5] and in data set [6] was “binds” throughout.

In general, stoichiometry N refers to a count of units in the complex or per binding partner.
